The values below come from patent US20220211037A1, “BIOSENSORS FOR DROUGHT STRESS IN PLANTS” (The Regents of the University of California, priority 2019, published 2022).

In assay [1] the target is 1:1 mixture of PYL3 containing PYL3-Cy5.5 and PYL3-BHQ3 (Arabidopsis thaliana). In words: calculated from static light scattering of the mixture, 40 µM ABA.
The target is the same in assay [2]. The assay can be described thus: calculated from static light scattering of the mixture, 0.1 µM ABA.
Assay [3] has the same target. In words: static light scattering of the PYL3-Cy5.5/PYL3-BHQ3 mixture, 1000 µM ABA.
The target is the same in assay [4]. In words: Cy5.5 fluorescence of the PYL3-Cy5.5/PYL3-BHQ3 mixture (quenched in dimers), 1000 µM ABA.
Assay [5] shares this target. In words: static light scattering of the PYL3-Cy5.5/PYL3-BHQ3 mixture, 0.1 µM ABA.
The target is the same in assay [6]. In words: calculated from static light scattering of the mixture, 1.0 µM ABA.
For assay [7] the target is unchanged. The assay can be described thus: calculated from static light scattering of the mixture, 1000 µM ABA.
For assay [8] the target is unchanged. In words: calculated from static light scattering of the mixture, 100 µM ABA.
Assay [9] has the same target. In words: static light scattering of the PYL3-Cy5.5/PYL3-BHQ3 mixture, 40 µM ABA.
The target is the same in assay [10]. In words: static light scattering of the PYL3-Cy5.5/PYL3-BHQ3 mixture, 1.0 µM ABA.
For assay [11] the target is unchanged. The assay can be described thus: Cy5.5 fluorescence of the PYL3-Cy5.5/PYL3-BHQ3 mixture (quenched in dimers), 0.1 µM ABA.
Assay [12] has the same target. The assay can be described thus: Cy5.5 fluorescence of the PYL3-Cy5.5/PYL3-BHQ3 mixture (quenched in dimers), 1.0 µM ABA.
For assay [13] the target is unchanged. The assay can be described thus: static light scattering of the PYL3-Cy5.5/PYL3-BHQ3 mixture, 100 µM ABA.
For assay [14] the target is unchanged. The assay can be described thus: Cy5.5 fluorescence of the PYL3-Cy5.5/PYL3-BHQ3 mixture (quenched in dimers), 100 µM ABA.
Assay [15] shares this target. The assay can be described thus: Cy5.5 fluorescence of the PYL3-Cy5.5/PYL3-BHQ3 mixture (quenched in dimers), 40 µM ABA.

In the case of “1:1 mixture of PYL3 containing PYL3-Cy5.5 and PYL3-BHQ3”, the PYLs in dimers (hetero- and homodimers, %) in [1] is 68%; in assay [2], 98%; in assay [6] it was 84%; in assay [7], 20%; in [8] it was 32%. Moreover, the PYLs in monomers (%) in assay [1] is 32%; in [2], 2%; in assay [6], 16%; in assay [7] it was 80%; in assay [8], 68%. Moreover, the Average molar mass (measured, amu) in assay [3] is 31100 amu; in assay [5], 51100 amu; in assay [9], 43300 amu; in assay [10], 47400 amu; in assay [13], 34000 amu. The Fluorescence (measured) in assay [4] was found to be 9490 cps; in assay [11], 3960 cps; in assay [12] it was 4290 cps; in [14], 6710 cps; in assay [15], 5300 cps.
